B1: unfolded outer membrane protein X (uOmpX) (natural protein, E. coli, UniProt P0A917 24-171, looked up)
chain: ATSTVTGGYAQSDAQGQMNKMGGFNLKYRYEEDNSPLGVIGSFTYTEKSRTASSGDYNKNQYYGITAGPAYRINDWASIYGVVGVGYGKFQTTEYPTYKHDTSDYGFSYGAGLQFNPMENVALDFSYEQSRIRSVDVGTWIAGVGYRF
B2: FkpA (full-length, dimeric form) (natural protein, E. coli, UniProt P45523 26-270, looked up)
chain: AEAAKPATAADSKAAFKNDDQKSAYALGASLGRYMENSLKEQEKLGIKLDKDQLIAGVQDAFADKSKLSDQEIEQTLQAFEARVKSSAQAKMEKDAADNEAKGKEYREKFAKEKGVKTSSTGLVYQVVEAGKGEAPKDSDTVVVNYKGTLIDGKEFDNSYTRGEPLSFRLDGVIPGWTEGLKNIKKGGKIKLVIPPELAYGKAGVPGIPPNSTLVFDVELLDVKPAPKADAKPEADAKAADSAKK

Assay [1] deals with B2. Description: AUC.
The target of assay [2] is B1. In words: cell-based or functional assay.
Assay [3] addresses unfolded β-barrel assembly machine A (uBamA) (UniProt P0A940 21-810). In words: AUC.

These results are taken from PMC10031210 (Protein Science : A Publication of the Protein Society, 2023).

For the molecule B1, in assay [1], the binding result was “binds”.
As to B2, the “decrease of the OmpX folding rate into diC11PC LUVs with FkpA” value in assay [2] was found to be 3 fold. For the same molecule, in assay [3], the binding result is “binds”.
